From the supplement of paper PMC7125110 come the findings set out here.

The labels stand for the following.
B1: glmS ribozyme (parent)
chain: AUAAAAGCGCCAGAACUACAGAAAUGUAGUUGACGAGGAGGAGGUUUAUCGAAUUUUCGGCGGAUGCCUCCAAA

± gives the standard error. This sample holds only a part of the variants without activity. Some results are limits rather than exact numbers.

The variants in this series derive from B1. As to the kind of experiment: self-cleavage kobs at 10000 uM GlcN6P; higher = faster cleavage; RNA array. The settings on record: with glucosamine-6-phosphate. In short, it runs like this: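 Glucosamine-6-phosphate (40 μM to 10 mM) in HEPES/KCl/Mg(OAc)2 buffer was flowed over sequenced MiSeq chips, and tiles were imaged over ~14 h. Barcoded ribozyme variants there had been transcribed in situ by E. coli RNA polymerase and were tracked through a hybridised Cy3 probe at 37 °C. One- or two-exponential decay fits to per-tile medians, normalised to baseline and to non-cleaving reference variants, gave kobs. kcat and KM came from weighted Michaelis–Menten fits across concentrations.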
Regarding AUAAAAGCGCCAGAACUACAGAAAUGUAGUUGCCGAGGAGGAGGUUUAUCGGAAUUUCGGCGGAUGCCUCCAAA [A33C A52G U54A], the “self-cleavage kobs at 10000 uM GlcN6P” value was under 1e-05 s⁻¹.
Next, AUAAAAACGCCAGAACUACAGAAAUGUAGUUGACCAGGAGUAGGUUUAUCGAAUUUUCGGCGGAUGCCUCCAAA [G7A G35C G41U]: under 1e-05 s⁻¹; AUAAAAGCGCCAGAACUACAGAAAUGUAGUUGACCAGGAGGACGUUUAUCGAAUUUUCGGCGGAUGCCUCCAAA [G35C G43C]: under 1e-05 s⁻¹.
The figure for AUAAAAGCGCCAAAACUACAGAAAUGUAGUUGACGAGGAGGGGGUUUAUCGAAUUUUCGGCGGAUGCCUCCAAA [G13A A42G] is 0.000882 ± 0.00023 s⁻¹.
With AUAAAAGCGCCAGACCUACAGAAAUGUAGUAGACGAGCAGCAGGUUUAUCGAAUUUUCGGCGGAUGCCUCCAAA [A15C U31A G38C G41C], the “self-cleavage kobs at 10000 uM GlcN6P” value is under 1e-05 s⁻¹.
On to AUAAAAGCGCCAGAACUACAGAAAUGUAGUUGACCAGGAGGAGGUUUUUCGAAUUUUCGGCGGAUGCCUGCAAA [G35C A48U C70G], for which the “self-cleavage kobs at 10000 uM GlcN6P” value is under 1e-05 s⁻¹.
As to AUAAAAGCGCCAGAACUACAGAAAUGUAGUGGACGAGGAGGAGGUUUAUCGAACUUUCGGCGGAUGCCUGCAAA [U31G U54C C70G], the “self-cleavage kobs at 10000 uM GlcN6P” value was 0.000117 ± 2.3e-05 s⁻¹.
Turning to AUAAAAGCGCCAGAACUACAGAAAUGUAGUUGACGAGGAGGAGGUUUAUCGUAUUUUCGGCGGAAGCCUCCAAA [A52U U65A], the “self-cleavage kobs at 10000 uM GlcN6P” value worked out at 2.95e-05 ± 9.7e-06 s⁻¹.
Next, AUAAAAGCGCCAAAACUACAGAAAUGUAGUUGACGCGUAGGAGGUUUAUCGAAUUUUCGGCGGAUGCCUCCAAA [G13A A36C G38U]: under 1e-05 s⁻¹; AUAAAAGCGCCAGAACUACAGAAAUGUAGCUGACGAGGAGGAGGUUUAUCGAAUUUUCGGCGGAUACCUCUAAA [U30C G66A C71U]: 0.000123 ± 2.3e-05 s⁻¹.
On to AUAAAAGCGCCAGAACUACAGAAAUGUAGUUGAAGAGGAGGCGGUUUAUCGAAUUUUCGGCGGAAGCCUCCAAA [C34A A42C U65A], for which the “self-cleavage kobs at 10000 uM GlcN6P” value was under 1e-05 s⁻¹.
Take AUAAAAGCGCCAGAGCUACAGAAAUGUAAUUAACGAGGAGGAGGUUUAUCGAAUUUUCGGCGGGUGCCUCCAAA [A15G G29A G32A A64G]: the “self-cleavage kobs at 10000 uM GlcN6P” value amounted to 0.000605 ± 0.00015 s⁻¹.
The figure for AUAAAAGCGCCUGAACUACAGAAAUGUACUUGACGAGGAGGAGGUAUAUCGAAUUUUCGGCGGAUGCCUCCAAA [A12U G29C U46A] is 0.000658 ± 0.00018 s⁻¹; for AUAAAAGCGCCAGAACUACAGAAAUGUAGUUGACGAGGAGGAGGUUCAUCGAUUUUUCGGCGGAUGCGUCCAAA [U47C A53U C68G] it is 3.22e-05 ± 1.4e-05 s⁻¹; for AUAAAAGCGCCAGAACUACAGAAAUGUAGUUUACGAGGAGGAGGUUUAUCGGAUUUUCGGCGGAUGCCUACAAA [G32U A52G C70A] it is 8.27e-05 ± 2.1e-05 s⁻¹.
The figure for AUAAAAGCGCCGGAACUACAGAAAUGUAGUUGACGAGGAGGCGGUUUAUCGAAUUUUCGGCGGAUGCCACCAAA [A12G A42C U69A] is 0.000102 ± 1.5e-05 s⁻¹; for AUAAAAGCGCCAGAAGUACAGAAAUGUAGUUGACGAGGAGGAGGGAUAUCGAAUUUUCGGCGGAUGCCUCCAAA [C16G U45G U46A] it is 0.000584 ± 0.00015 s⁻¹.
Turning to AUAAAAGCGCUAGAACUACAGAAAUGUAGUUGACGAGGAGGAGGUUUGUUGAAUUUUCGGCGGAUGCCUCUAAA [C11U A48G C50U C71U], the “self-cleavage kobs at 10000 uM GlcN6P” value is under 1e-05 s⁻¹.
The figure for AUAAAAGCGCCAGAACUACAGAAAUGUAUUUGACGAGGAGGAGGUUUGUCAAAUUUUCGGCGGAUGCCUCCAAA [G29U A48G G51A] is under 1e-05 s⁻¹; for AUAAAAGCGCCAUAACUACAGAAAUGUAGUUGACGACGAGGACGUUUAUCGAAUUUUCGGCGGAUGCCUCCAAA [G13U G37C G43C] it is under 1e-05 s⁻¹.
The figure for AUAAAAGCUCCGGAACUACAGAAAUGUAGUUGACGAUGAGGAGGUUUAUCGAAUUUUCGGCGGAUGCCUCCAAA [G9U A12G G37U] is under 1e-05 s⁻¹.
Consider AUAAAAGCGCCAGAACUACAGAAAUGUAGUUGACGAGGGGGAGGUUUAUCGAAUUUUCGCCGGAUGCCUUCAAA [A39G G60C C70U], for which the “self-cleavage kobs at 10000 uM GlcN6P” value was under 1e-05 s⁻¹.
The figure for AUAAAAGCGCCAGAACUACAGAAAUGUAGUUGACGAGGAGGACGUUUAUCGAAUUUUCGGCCGGUGCGUCCAAA [G43C G62C A64G C68G] is under 1e-05 s⁻¹; for AUAAAAGCGCCAGAACUACAGAAAUGUAGUUGACGAGGAGGAGGUGUAUCGAAUUUUCGGGGAAUGCCUCCAAA [U46G C61G G63A] it is under 1e-05 s⁻¹.
As for AUAAAAGCGCGAGAACUACAGAAAUGUAGUUGACGAGAAGGAGGUUUCUCGAAUUUUCGCCCGAUGCUUCCAAA [C11G G38A A48C G60C G62C C68U], the “self-cleavage kobs at 10000 uM GlcN6P” value is under 1e-05 s⁻¹.
Consider AUAAAAGCGCCAGAACUACAGAAAUGUAUUUGACGAGGAGGAGGUUGAUCGAAUUUUCGGCGGAUGGCUCCAAA [G29U U47G C67G], for which the “self-cleavage kobs at 10000 uM GlcN6P” value was found to be 0.000103 ± 1.9e-05 s⁻¹.
The figure for AUAAAAGCGCCAGAACUACAGAAAUGUAGAUGACGACGAGGAGGUUUAUUGAAUUUUCGGCGGAUGCCUCCAAA [U30A G37C C50U] is under 1e-05 s⁻¹; for AUAAAAGCGCCAGAACUACAGAAAUGUAGUUGAAGAGGAGGAGGUUUAUCAAAUUUUCGGCGGAUGGCUACAAA [C34A G51A C67G C70A] it is under 1e-05 s⁻¹.
For AUAAAAGCGCCAGAACUACAGAAAUGUAGUUGACGAGAAGGAGGUUUAUCAAAUUUUCGGCGGAUGCCUCCAAA [G38A G51A], the “self-cleavage kobs at 10000 uM GlcN6P” value is under 1e-05 s⁻¹.
The figure for AUAAAAGCGCCAGAACUACAGAAAUGUAGUUGACGAGGAAGAGGCUUAUCGAAUUUUCGGCGGAGGGCUCCAAA [G40A U45C U65G C67G] is 0.00034 ± 0.00012 s⁻¹; for AUAAAAGCGUCAGAACUACAGAAAUGUAGUUGACUAGGAGGGGGUUUAUCGAAUUGUCGGCGGAUGCCUCCAAA [C10U G35U A42G U56G] it is under 1e-05 s⁻¹.
AUAAAAGCGCCAGAACUACAGAAAUGUAGUUGACGAGGAGGAGCUUUAUCGAAUUUUCGGCGGAUGCCUUAAAA [G44C C70U C71A]: the “self-cleavage kobs at 10000 uM GlcN6P” value is under 1e-05 s⁻¹.
Next, AUAAAAGCGCCAGAACUACAGAAAUGUAGUUGACGUGGAGGAGGUUUAUCGUAUUUUCGGCGGAGGCCCCCAAA [A36U A52U U65G U69C]: under 1e-05 s⁻¹.
As for AUAAAAGCGCCAUAACUACAGAAAUGUAGUUGACGUGGAGGAGUUUUAUCGAAUUUUCGGCGGAUGCCUCCAAA [G13U A36U G44U], the “self-cleavage kobs at 10000 uM GlcN6P” value is under 1e-05 s⁻¹.
As to AUAAAAGCGCCAGAACUACAGAAAUGUAGUUGUCGAGGAGGAGGUUAAUCGAAUUUUCGGCGGAUGCCUCCAAA [A33U U47A], the “self-cleavage kobs at 10000 uM GlcN6P” value was 9.99e-05 ± 1.7e-05 s⁻¹.
Consider AUAAAUGCGCCAGAACUACAGAAAUGUAGUUGACAAGGAGGAGGUGUAUCUAAUUUUCGGAGGAUGCCUCCAAA [A6U G35A U46G G51U C61A], for which the “self-cleavage kobs at 10000 uM GlcN6P” value is under 1e-05 s⁻¹.
Next, AUAAAAGCGCCUGAACUACAGAAAUGUAGUUGACGAGGAGGAUGUAUAUCGAAUUUUCGGCGGAUGCCUCCAAA [A12U G43U U46A]: 4.1e-05 ± 1.8e-05 s⁻¹.
